The chains are these.
B1: SC06-049 (scFv)
scFv: QVQLVQSGAEVKKPGESLKISCKGSGYSFTSYWIGWVRQMPGKGLEWMGIIYPGDSDTRYSPSFQGQVTISADKSIGTAYLQWSSLKASDTAMYYCARLFRVRGGHFDSWGQGTLVTVSSGTGGSGGTGSGTGGSTQSALTQPASVSGSPGQSITISCTGTNSDVGGYNYVSWYQQHPGKAPKLLIYDVTNRPSGVSNRFSASKSGNTASLTISGLQAEDEADYYCSSFTSSSTRVFGGGTKLTVL
B2: SC05-187 (scFv)
scFv: EVQLVQSGAEVKKPGESLKISCKGSGYSFTKYWIGWVRQMPGKGLEWMGIIYPGDSDTRYSPSFQGQVTISADKSISTAYLQWSSLKASDTAMYYCARGSGIATGNSFDSWGQGTLVTVSSGTGGSGGTGSGTGGSTQTVVTQEPSLTVSPGGTVTLTCASSTGAVTSGYYPNWFQQKPGQAPRALIYSTSKKHSWTPARFSGSLLGGRAALTLSGAQPEDEADYYCLLSYGGARVFGGGTKLTVL
B3: SC06-409 (scFv)
scFv: EVQLVQSGAEVKKPGESLKISCKGSGYSFTNYWIGWVRQMPGKGLEWMGIIYPGDSDTRYSPSFQGQVTISADKSISTAYLQWSSLKASDTAMYYCARHTQNKNGMNTFDIWGQGTMVTVSSGTGGSGGTGSGTGGSTQSALTQPPSASGSPGQSVTISCTGTSSDIGGYNYVSWYQQHPGKAPKLMIYEVSNRPPGVSNRFSGSKSGNTASLTISGLQAEDEADYYCSSYSTTTTRVIFGGGTKLTVL
B4: SC06-050 (scFv)
scFv: EVQLVESGPEVKKPGASVKVSCEASGYNLDNYGITWVRQAPGQGLEWLGWISAYNAKTEYGQRLQGRVTMTTDTATSTAYLELRSLRSDDTAVYYCARVLGYRGGWYDEGDAFDVWGQGTMVTVSSGTGGSGGTGSGTGGSTDIQLTQSPSFLSASVGDRVTITCRASQGIRSHLAWYQQKAGKAPKLLIYAASTLQSGVPSRFSGSGSGTEFTLTISSLQPDDFAAYYCQQLNTYPITFGQGTRLEIK
notes: also called SC05-050
B5: SC06-016 (scFv)
scFv: QVQLVQSGPEVKKPGASVTVSCKASGYSFSSYGISWVRQAPGQGLEWMGRIIPVGGNTLYSQMFQGRVTMTSDTSTSTVYLELSSLRSEDTAVYFCARDGGRWQFDYWGQGTLVTVSSGTGGSGGTGSGTGGSTDIQLTQSPSSVSASVGDRVTITCRASQGISNWLAWYQQKPGKAPELLIYAASSLQSGVPPRFSGSASGTDFTLTISSLQPEDFATYYCQQSKNFPYTFGQGTKVEIK
B6: SC06-389 (scFv)
scFv: QVQLVQSGAEVKKPGESLKISCKGSGYSFSTYWIGWVRQMPGKGLEWMGIIYPGDSDTRYSPSFQGQVTISADKSISTAHLQWSSLKASDTAMYYCARPGPRGYNHGFDYWGQGTLVTVSSGTGGSGGTGSGTGGSTSSELTQDPAESVALGQTVKITCQGDSLRRYYASWYQQKPGQAPVLVIYGKNNRPSGIPDRFSGSRSGNTASLTITGAQAEDEAVYYCNSRDSSGNSVVFGGGTKLTVL
B7: SC06-043 (scFv)
scFv: EVQLVESGAEVKKPGESLKISCKGSGYSFTSYWIGWVRQMPGKGLEWMGIIYPGDSDTRYSPSFQGQVTISADKSISTAYLQWSSLKASDTAMYYCARRYCSGGTCSDGFDIWGQGTMVTVSSGTGGSGGTGSGTGGSTQSALTQPPSASGSPGQSVTISCTGTSSDVGGYNYVSWYQQHPGKAPKLMIYEVSKRPSGVPDRFSGSKSGNTASLTVSGLQAEDEADYYCSSYAGSNNLVFGGGTKLTVL
B8: SC06-429 (scFv)
scFv: QVQLVQSGAEVKNPGESLKISCKGSGYTFTSYWIGWVRQMPGKGLEWMGSIYPGDSDTRYSPSFQGQVTISVDKSISTAYLQWSSLKASDTAMYYCARQYRAGSTTRFDPWGQGTLVTVSSGTGGSGGTGSGTGGSTDVVMTQSPLSLPVTPGEPASISCRSSQSLRHRNGNNYLDWYLQKPGQSPQLLIYLGSNRASGVPDRFSGSGSGTDFTLKISRVEAEDVGIYYCMQALQTPLTFGGGTKVEIK
B9: SC06-415 (scFv)
scFv: EVQLVESGGGLVQPGRSLRLSCAASGFTFDDYAMHWVRQAPGKGLEWVSGISWNSGSIGYADSVKGRFTISRDNAKNSLYLQMNSLRAEDSAVYYCARGGQRFDFWGQGTLVTVSSGTGGSGGTGSGTGGSTQSALTQPPSASGSPGQSVTISCTGTSSDVGGYNYVSWYQQLPGKAPKLLIYDVNNRPSGVSNRFSGSKSGNTASLTISGLQAEDEAEYYCGSSVGSRLRIFGGGTKLTVL
B10: SC06-252 (scFv)
scFv: EVQLVETGGGLVQPGGSLRLSCAASGLTFSSYAMSWVRQAPGKGLEWVSALSGSTTFYADSVKGRFTISRDNAKNTLYLQMNSLRAEDTAVYYCARGNYYGMDVWGQGTTVTVSSGTGGSGGTGSGTGGSTSYVLTQPPSASGTPGQRVTISCSGSSSNIGKFYVYWYQQFPGAAPKLLIYSNNQRPSGVPDRFSGSKSGTSASLAISGLQSEDEADYYCAAWDGSLNGYVFGTGTKVTVL
B11: SC06-432 (scFv)
scFv: QLQLQESGPGLVKPSQTLSLTCTVSGGSISSGGYYWSWIRQHPGKGLEWIGYIYYSGSTYYNPSLKSRVTISVDTSKNQFSLKLSSVTAADTAVYYCARERILDRMNDYWGQGTLVTVSSGTGGSGGTGSGTGGSTQSVVTQPPSVSGAPGQRVTISCTGSSSNIGAGYDVHWYQQLPGTAPKLLIYGNSNRPSGVPDRFSGSKSGTSASLAITGLQAEDEADYYCQSSDSSLNILFGGGTKLTVL
B12: SC05-179 (scFv)
scFv: EVQLVESGGGLVKPGGSLGLSCAASGFFFSDYSMSWIRQAPGKGLEWLSNISGSGHSTKYAESMRGRITISRDNAKKSLSLQLNSLRAEDTAVYFCVRGGGYRMDVWGQGTTVTVSSGTGGSGGTGSGTGGSTQSALTQPRSVPGSPGQSVTISCTGTSSDVGGYNYVSWYQQHPGKAPKLMIYDVSKRPSGVPDRFSGSKSGNTASLTVSGLQAEDEADYYCSSYAGSNNFVVFGGGTKLTVL
B13: SC06-388 (scFv)
scFv: EVQLVETGAEVKKPGESLRISCKGSGYSFTSYWIAWVRQMPGKGLEWMGVIYPGDSDARYSPSFQGQVTMSVDKSISTAYLQWSSLKASDTAMYYCAKLRSKNTGLDYWGQGTLVTVSSGTGGSGGTGSGTGGSTQSALTQPPSASGSPGQSVTISCTGTSSDVGGYNFVSWYQQHPGKAPKLMIYEVSNRPSGVPDRFSGSKSGNTASLTVSGLQAEDEADYYCSSYAGNNNLAFGGGTQLTVL
B14: SC06-402 (scFv)
scFv: QVQLVQSGAEVKKPGESLKISCKGSGYSFTSYWIGWVRQMPGKGLEWMGIIYPGDSDTRYSPSFQGQVTISADKSISTAYLQWSSLKASDTAMYYCARWGGVCSSTSCPNRDAFDIWGQGTMVTVSSGTGGSGGTGSGTGGSTQSALTQPRSVSGSPGQSVTISCTGTSSDVGGYNYVSWYQQHPGKAPKLMIYDVSNRPSGVSNRFSGSKSGNTASLTISGLQAEDEAEFHCSSYRSSGASPVVFGGGTKLTVL

T1 sequence (P02769 25-607 limits assumed): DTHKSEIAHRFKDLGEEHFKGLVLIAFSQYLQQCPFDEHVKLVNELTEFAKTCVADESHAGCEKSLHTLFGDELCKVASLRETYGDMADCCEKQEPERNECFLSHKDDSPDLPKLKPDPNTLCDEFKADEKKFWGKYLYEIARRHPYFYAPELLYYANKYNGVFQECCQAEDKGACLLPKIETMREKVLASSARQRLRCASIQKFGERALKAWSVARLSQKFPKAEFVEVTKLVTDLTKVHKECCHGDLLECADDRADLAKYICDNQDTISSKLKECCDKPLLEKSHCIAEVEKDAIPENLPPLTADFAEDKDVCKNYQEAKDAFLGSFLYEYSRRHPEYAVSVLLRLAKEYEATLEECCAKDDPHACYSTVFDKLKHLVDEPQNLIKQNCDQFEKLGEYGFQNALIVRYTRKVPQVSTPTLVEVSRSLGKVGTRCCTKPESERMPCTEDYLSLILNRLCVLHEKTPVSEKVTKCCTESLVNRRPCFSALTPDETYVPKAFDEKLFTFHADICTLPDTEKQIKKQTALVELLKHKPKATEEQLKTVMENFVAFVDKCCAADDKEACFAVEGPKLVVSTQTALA

The test has as its target T1, BSA (bovine serum albumin) (bovine (송아지 혈청 알부민), UniProt P02769 25-607).
T1 construct: Negative control antigen of the phage ELISA; also called 송아지 혈청 알부민
The test can be described thus: phage ELISA, 1% BSA coated, anti-M13 peroxidase, OD 492 nm. In general terms: ELISA stands for enzyme-linked immunosorbent assay.
On to B1, for which the binding result is recorded as “no binding”.

As for B2, the binding result is listed as “no binding”.

For B3, the binding result is “no binding”.

On to B4, for which the binding result is “no binding”.

With B5, the binding result is reported as “no binding”.

Regarding B6, the binding result was “no binding”.

For B7, the binding result is reported as “no binding”.

Regarding B8, the binding result is given as “no binding”.

Turning to B9, the binding result was “no binding”.

With B10, the binding result is reported as “no binding”.

On to B11, for which the binding result is on record as “no binding”.

For B12, the binding result was “no binding”.

As for B13, the binding result is “no binding”.

Regarding B14, the binding result is recorded as “no binding”.

These data come from KR20140095558A (dated 2014).
